The conditions of the series: whole UniProt chain shown.
Setting [1] is: Bacillus amyloliquefaciens, pH 7, 25 °C, GdnHCl, CD, phosphate 20 mM.
The mark [2] stands for this setting: Bacillus amyloliquefaciens, pH 8, 25 °C, Urea, Fluorescence, Tris-HCl 50 mM, reversible: yes.
Where [3] appears, read: Bacillus amyloliquefaciens, pH 8, Thermal, CD, Sodium phosphate 2 mM, reversible: yes.
The mark [4] stands for this setting: Bacillus amyloliquefaciens, pH 8, Thermal, DSC, Sodium phosphate 10 mM, reversible: yes.
[5] abbreviates: Bacillus amyloliquefaciens, pH 9.5, Thermal, DSC, Sodium phosphate 10 mM, reversible: yes.
Setting [6] is: Bacillus amyloliquefaciens, pH 6, 25 °C, GdnHCl, Fluorescence, MES 50 mM, CaCl2 5 mM, reversible: no.
The mark [7] stands for this setting: Aquifex aeolicus (strain VF5), pH 7, 20 °C, GdnHCl, Fluorescence, Sodium phosphate sodium chloride 25 mM 100 mM.
Setting [8] is: Bacillus caldolyticus, pH 7, Thermal, CD, sodium cacodylate 100 mM, NaCl 2 M, reversible: yes.
The mark [9] stands for this setting: Bacillus caldolyticus, pH 7, Thermal, CD, sodium cacodylate 100 mM, reversible: yes.
Setting [10] is: Aliivibrio salmonicida (strain LFI1238), pH 8, Thermal, DSC, HEPES, MgCl2 NaCl 5 mM 0.175, reversible: no.
The mark [11] stands for this setting: Aliivibrio salmonicida (strain LFI1238), pH 8, Thermal, DSC, HEPES, MgCl2 NaCl 5 mM 1, reversible: no.
The mark [12] stands for this setting: Aliivibrio salmonicida (strain LFI1238), pH 8, Thermal, DSC, Tris-HCl 50mM, NaCl 0.175 M.
[13] abbreviates: Aliivibrio salmonicida (strain LFI1238), pH 8, Thermal, DSC, Tris-HCl 50mM, NaCl 1 M.
Setting [14] is: Bacillus amyloliquefaciens, pH 7.5, Thermal, fluorescence, Pipes 10 mM, transition: 2.

Several values for one entry are separate records, joined by “and”; a condition that tells them apart may be missing. Equal entries are not always repeated.

B1: Cytidine deaminase wild type, Q9R2S1 (protein)
chain: MEIEQLIVEAKKARELAYVPYSKFPVGAALLTKGGSVYRGCNIENAAYSVCNCAERTALFKAYSEGEKEFTALAVIADTPRPVPPCGACRQVIAELCHGDMKVILANLKGDVKVMTVSELLPEAFSAEDLHA
Turning to B1, under “Bacillus caldolyticus, pH 7, 25 °C, GdnHCl, CD, potassium phosphate 20 mM, reversible: no”, the unfolding free energy was 4.3 kcal/mol.

B2: Barstar wild type, P11540 (protein)
chain: MKKAVINGEQIRSISDLHQTLKKELALPEYYGENLDALWDCLTGWVEYPLVLEWRQFEQSKQLTENGAESVLQVFREAKAEGCDITIILS
In the case of B2, under setting [1], the “denaturant midpoint (higher = more stable)” value (from here on “denaturant midpoint”) worked out at 1.92 M and the unfolding free energy turned out to be 4.6 kcal/mol. The unfolding free energy (Bacillus amyloliquefaciens, pH 8, 10 °C, Urea, CD, Tris Cl 50 mM, KCl 100 mM) came to 3 kcal/mol. Further, under setting [2], the denaturant m value came out at 1.25 kcal/mol/M, the “denaturant midpoint” value came out at 3.87 M and the unfolding free energy amounted to 4.84 kcal/mol. Besides, under setting [3], the Tm worked out at 70 °C, the “heat capacity change of unfolding” value is 1.49 kcal/mol/K and the “unfolding enthalpy (van 't Hoff)” value came out at 69.7 kcal/mol. Under setting [4], the Tm was determined as 69.7 °C, the “heat capacity change of unfolding” value came out at 1.41 kcal/mol/K, the “unfolding enthalpy (calorimetric)” value came to 42.6 kcal/mol and the “unfolding enthalpy (van 't Hoff)” value was found to be 60 kcal/mol. Also, under setting [5], the Tm came to 68.7 °C, the “heat capacity change of unfolding” value came to 1.36 kcal/mol/K, the “unfolding enthalpy (calorimetric)” value was 41.2 kcal/mol and the “unfolding enthalpy (van 't Hoff)” value is 56.1 kcal/mol.

B3: Beta-glucanase wild type, P07980 (protein)
chain: MKRVLLILVTGLFMSLCGITSSVSAQTGGSFFEPFNSYNSGLWQKADGYSNGDMFNCTWRANNVSMTSLGEMRLALTSPSYNKFDCGENRSVQTYGYGLYEVRMKPAKNTGIVSSFFTYTGPTEGTPWDEIDIEFLGKDTTKVQFNYYTNGAGNHEKFADLGFDAANAYHTYAFDWQPNSIKWYVDGQLKHTATTQIPAAPGKIMMNLWNGTGVDDWLGSYNGVNPIYAHYDWMRYRKK
In the case of B3, under setting [6], the “denaturant midpoint” value was 2.73 M and 2.84 M; the unfolding free energy was 12.9 kcal/mol and 4.97 kcal/mol.

B4: wild type, O66926 (protein)
chain: MKKFLIPFLTFLGFTFSSELIPCKVVRVVDGDTFRCVPEGKSRFIKVRLMGIDTLETNNMKKGMGQAKWFYGGIRTVKEFGKKAKEFSKRLIDKKVVYLELPVRKMDNNGRYLAYVWLDEYRNKMLNLLLVKEGLAFVFIIPPQVKYLKELGEAQEEAYKDRRGFWKYFKGE
In the case of B4, under setting [7], the denaturant m value was determined as 1.02 kcal/mol/M, the “denaturant midpoint” value amounted to 0.42 M and the unfolding free energy was 2.8 kcal/mol.

B5: Cold shock protein CspB wild type, P41016 (protein)
chain: MQRGKVKWFNNEKGYGFIEVEGGSDVFVHFTAIQGEGFKTLEEGQEVSFEIVQGNRGPQAANVVKL
On to B5, for which the unfolding free energy worked out at 3.37 kcal/mol (Bacillus caldolyticus, pH 7, 60 °C, Thermal, CD, sodium cacodylate 100 mM, NaCl 2 M, reversible: yes) and 2.44 kcal/mol (Bacillus caldolyticus, pH 7, 60 °C, Thermal, CD, sodium cacodylate 100 mM, reversible: yes). Further, the Tm stood at 84.4 °C under setting [8] and 76.9 °C under setting [9]. The “unfolding enthalpy (van 't Hoff)” value is 61.4 kcal/mol under setting [8] and 58.6 kcal/mol under setting [9].

B6: wild type, Q2XSL7 (protein)
chain: MKLIRLVISLIAVSFTVNVMAAPPSSFSKAKKEAVKIYLDYPTSFYCGCDITWKNKKKGIPELESCGYQVRKQEKRASRIEWEHVVPAWQFGHQRQCWQKGGRKNCTRNDKQFKSMEADLHNLVPAIGEVNGDRSNFRFSQWNGSKGAFYGQCAFKVDFKGRVAEPPAQSRGAIARTYLYMNNEYKFNLSKAQRQLMEAWNKQYPVSTWECTRDERIAKIQGNHNQFVYKACTK
Regarding B6, the midpoint of thermal melting (Tm) was determined as 41.8 °C under setting [10], 51.9 °C under setting [11], 41.8 °C under setting [12] and 51.9 °C under setting [13]. The “unfolding enthalpy (calorimetric)” value by setting is: under setting [10], 64 kcal/mol; under setting [11], 88.7 kcal/mol; under setting [12], 64 kcal/mol; under setting [13], 88.6 kcal/mol.

B7: Subtilisin BPN' wild type, P00782 (protein)
chain: MRGKKVWISLLFALALIFTMAFGSTSSAQAAGKSNGEKKYIVGFKQTMSTMSAAKKKDVISEKGGKVQKQFKYVDAASATLNEKAVKELKKDPSVAYVEEDHVAHAYAQSVPYGVSQIKAPALHSQGYTGSNVKVAVIDSGIDSSHPDLKVAGGASMVPSETNPFQDNNSHGTHVAGTVAALNNSIGVLGVAPSASLYAVKVLGADGSGQYSWIINGIEWAIANNMDVINMSLGGPSGSAALKAAVDKAVASGVVVVAAAGNEGTSGSSSTVGYPGKYPSVIAVGAVDSSNQRASFSSVGPELDVMAPGVSIQSTLPGNKYGAYNGTSMASPHVAGAAALILSKHPNWTNTQVRSSLENTTTKLGDSFYYGKGLINVQAAAQ
As for B7, the unfolding free energy (Bacillus amyloliquefaciens, pH 5, 20 °C, Thermal, DSC, Sodium acetate 100 mM, reversible: yes) came out at 2.1 kcal/mol. The Tm runs as follows: (Bacillus amyloliquefaciens, pH 7, Thermal, CD, KPO4 100 mM) 65 °C; under setting [14], 53.9 °C and 56.8 °C; (Bacillus amyloliquefaciens, pH 8, Thermal, DSC, Tris-HCl 50 mM, CaCl2 10 mM, reversible: no) 78.3 °C; (Bacillus amyloliquefaciens, pH 8, Thermal, DSC, Tris-HCl 50 mM, KCl 50 mM) 58.9 °C. Under setting [14], the “unfolding enthalpy (calorimetric)” value is 55.8 kcal/mol and 56.7 kcal/mol.

Values taken from FireProtDB.
